Results taken from the domain aggregation screens of Martell et al. (2025).

Test: soluble fraction after stress (log2 fold change); higher = more stays soluble; pooled small domains, quantitative proteomics
Conditions: stress: 75 degC
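Further: 20 min heating vs room temperature control held 20 min.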

Sequence	soluble fraction (log2)
HMVDDRPVTGTTLIREWQGRAYEVIVQAGHFEFQGQRYQSLSAIAKVITGTVWNGWAFFGLR	-0.415
HMVDDTGLPTVLISDGRLLERNLHRLHLDHTWLQRRLEENNIPSIQSLFLLTVDKQHQLYFLKK	-1.74
HMVDGTPALTDLKKVSKPGRRHYTGSQEIPRVLNGLGISIVSTSKGIMTGAQARRQKVGGELLAFV	0.0345
HMVDIIMDLLEAVAQARPADAFIKSLHIQYQERGGLSKKQLQGLYGKAAKTAGIPPGKLATLEAIILKRP	-2.52
HMVDITPDLIRTLLERFGEYGVTKEHIEARIQRHIESILPAQVVQLRKTYNSLKDGMSQPSDWFDI	-1.9
HMVDLEINGRQTLQFVANKYGIPVEKLATDLNIPSDRFGEKLGRLRRQYAFTMNDVRKSILKNK	-0.588
HMVDPELFIWVESSKEPVYHLAYKIELFVHSTDPQDDVPVHRWQVFVDAHNGNILDKFDEVR	-0.292
HMVDPRWETPDENLAEQIKSVMPVMWVYDREAKSFVERPAIDFSFSIFERTTLYIYDKDGNEIGFAR	-0.0443
HMVDQVDKDRFLEALTQLGGSAGNVRLRETLQWEEEVYVIIKDALVKSGTILTGRGRGGSVLLASA	-0.95
HMVDSLTIGRRIRQLRTERGMTLEELAAAVGRAPSQLSMIENGRREPKLTLLQAIARALGSTLDALLE	-0.562
HMVDVNLLKYYVMESGKSLTDVAAAIGVTPATLHRKMSGESDFYRKEMQDIASYLGLDRDTIDRIFF	-1.84
HMVEDIVLTDAQIEFVKQQAKNGLSAFQISEMIWPEMSVKRFSKQHVAVLDFLREYEPAYVHDSE	0.156
HMVEELDVQFIKLTVQGDHPWKNKKIRELSIPWDLLFVLIIRGDKSIIPNGKTTIKDGDIVVVSAPEYRG	-1.12
HMVEFLMESTNGMYGIVKEGSSYYVQKGINESSLDYIGGMFMKDKNRFSSYSTALKRLELISGQET	-0.419
HMVEGMQFDRGYQSPYFVTNAEKMVAELDNPYILLVEKKISSMKELLPVLEPVAQQGKSLLIISEEVEG	0.0546
HMVEGTVKWFNDEKGFGFIEQEGGKDVFVHFSAINGSGRRTLHEGQRVTMEVTQGQKGPQAENVNP	0.147
HMVEIPEFKITTFVNTDNEQIAEFENGFTDKKAEITFNNTKYVFKEKLPDQDGIRTYVYEELHE	0.141
HMVELGMSQNEFIQKFGKPFNKEMAYTYDKHKRETLFYKEDLYRGSWFIVTTAFTFVDSKLVSQEIVREER	-3.36
HMVENMDEFIGRVRRLVSDRLDLLKEASDDEIRETISQVVLELSREQFLTLNEKKTVLEGVFNSMR	-0.944

Sequence	soluble fraction (log2)
HMVERLVVSPGAGVFAPNKAIANGTRISVGDVLGMVGEQEVRSLFDGVLQSFISVDGERLTAHQPVAWLRT	-0.587
HMVEVPKVAGMSTAQGVSELEQKGFVVNRTESYDDTVPKGNIISQTPEGGTKVPSGSAVTIKISQGAE	-0.159
HMVEVPNVIGMTKPELTQQFVNLKLDGSGEGDVVVQQSPSEGSKVKEGSTVRVYFG	0.128
HMVEVPNVSNLTLEQAENKLIQQGLQVKLEGQGEKVVAQIPQPGAVVNKKSTVILF	0.258
HMVFLPDEIFRLKVIKAGEGPEQGVGYLDDGTMVVIEGARDRIGDELEVRVTSTLQTNAGKMIFTKFE	-0.548
HMVGEPEPIRYSRFLDEMKSGKLDSVVIQGDTILGVRKDKSQFKTVNPETDYSALIGALDKAGVGIEGRA	0.132
HMVGEYTVKKGDTLWKIAGQTLGSPLRYAEIYELNKDVIEEAALGRGKKNSSNGHWIFQGTVLKIPA	-0.188
HMVGIAEAMKHIADEDYGDLSAIFKQIFSDTDGGRNFSDAIRTQMRSTDSSGLRKVLSTLIMSIEE	-0.651
HMVGNEEALRAIVESIIAQNTTEVASFREGKEGLIGWFLGQVMRQTGGKADPKLARQILLELLKQ	-0.449
HMVGNYYDILGVPETATQDAIKKAFRSLAQQHHPDKNPDDPGAEAMFKKVSEAYQVLSDPDKRQTYDASL	-0.00926
HMVIDFYDPQTKVIHEIKKSSAKEEAHVWQVKYYIYLFEKEEIMGVKGVLEYPLLREIVSVNF	0.19
HMVINQRKLNLLSIYSSGSEKRAIILFPTGQTKFVKVGDTLDGGRVAAIGTSEIRYLKGGNNLVLRIPG	-2.64
HMVINTRHTGFVVDDLERFINFYLGLGLKLISRKVESGEYIDKLVGLKGTKLEWAKLSLPDNSMIEILKYH	-0.508
HMVIREVNDNPVSAEELRLGDRVKVLSLGQNGEIVTLPDEKGELTVQVGILKAKVNLDDIMLI	-0.177
HMVISAKRMQDRRDSILDAAREAFARAGFEGTSIADIARRAGVSDGLVYRYFASKRDLLNAVLTA	-1.61
HMVIVGGDVIVHYVDTEGKKISDDVVKSGNVGEDYSTDQKTILGYRFKEVQGNTSGKFTDKTQVVTYIYT	0.649
HMVKEVKVPDVEGLTTEEAIKELKKYGLAYTTKSEENTDIEEGKVIRTEPKKGSTKVKGSTVTIIESSG	0.451
HMVKFGERVKQLRLSAGMTQEQLAERIWVTKAAISNYELSERNPSPETIIKIAGVFGVTTDYLLGLED	-1.9
HMVKIVWSKEGPYVGTRVRRYFSQGPVDGTVVMYAKPQKGDDVALWRISHDDGDEEDLEEQELRLAID	-1.06
